Residue numbers refer to the chain shown, from its start. Names may count otherwise.
B1: hole Fc, wild-type hole (single Fc chain, hinge cysteines mutated to serine) (other)
chain: DKTHTSPPSPAPELLGGPSVFLFPPKPKDTLMISRTPEVTCVVVDVSHEDPEVKFNWYVDGVEVHNAKTKPREEQYNSTYRVVSVLTVLHQDWLNGKEYKCKVSNKALPAPIEKTISKAKGQPREPQVYTLPPSREEMTKNQVSLSCAVKGFYPSDIAVEWESNGQPENNYKTTPPVLDSDGSFFLVSKLTVDKSRWQQGNVFSCSVMHEALHNHYTQKSLSLSPGK
notes: IgG1 Fc with T366S, L368A, Y407V only, made in E. coli in the same manner as the knob/knob Fc; also called hole wild-type; hole/hole homodimer
B2: Knob F241S/F243R (knob Fc with F241S/F243R mutations) (other, name in EU numbering)
chain: B1 chain with F21S, F23R, S146W, A148L, V187Y
notes: Positions are EU numbers, not positions on the entry; also called F241S/F243R mutant knob

Tests used:
[1] = biological target: B2; experiment: SPR (BioRad ProteOn), ligand hole wild-type immobilized on NHS activated sensor, analyte knob F241S/F243R 6.25-200 nM
hole F241S/F243R = biological target: T1, hole F241S/F243R (human, UniProt P0DOX5 223-449 = IgG part, F241S; F243R); experiment: SPR (BioRad ProteOn), ligand hole F241S/F243R immobilized on NHS activated sensor, analyte knob F241S/F243R 6.25-200 nM
T1 construct: SPR ligand named only 'hole F241S/F243R'; Positions are EU numbers

Row | Binder | Kd [1] [nM] | Kd (hole F241S/F243R) [nM]
1 | B1 | < 10 | 
2 | B2 |  | < 10
